Four molecules from publication PMC5156392, “Structure and Mechanism of Staphylococcus aureus TarS, the Wall Teichoic Acid β-glycosyltransferase Involved in Methicillin Resistance” (PLoS Pathogens, 2016) can be followed below.

The test system of data set [1] is CC(=O)N[C@H]1[C@@H](OP(=O)(O)OP(=O)(O)OC[C@H]2O[C@@H](n3ccc(=O)[nH]c3=O)[C@H](O)[C@@H]2O)O[C@H](CO)[C@@H](O)[C@@H]1O. The experiment in a line: purified protein. The settings on record: donor hydrolysis reaction without polyRboP acceptor; varied UDP-GlcNAc.
Data set [2] concerns the molecule itself. The data set can be described thus: SEC-MALS; Superdex 200 HR 10/30, 30 mM Hepes pH 7.3, 500 mM NaCl, 5% glycerol; full-length TarS run at 25 μM.
The data set “crystal structure” deals with the molecule itself. The experiment in a line: crystal structure.

As a reminder, the Km is the concentration of substrate that gives half-maximal velocity. For orientation: stoichiometry N means the number of molecules, sites or subunits per partner or assembly.

As to “TarS1-349 (Staphylococcus aureus subsp. aureus Mu50)”, the Km in data set [1] was 21 ± 2 µM.

With “full-length TarS (TarS 1-573; wild-type) (Staphylococcus aureus subsp. aureus Mu50)”, the Michaelis-Menten constant (Km) in data set [1] came to 45 ± 3 µM.

B1: Staphylococcus aureus TarS, full-length protein (1-573) (enzyme)
chain: MMKFSVIVPTYNSEKYITELLNSLAKQDFPKTEFEVVVVDDCSTDQTLQIVEKYRNKLNLKVSQLETNSGGPGKPRNVALKQAEGEFVLFVDSDDYINKETLKDAAAFIDEHHSDVLLIKMKGVNGRGVPQSMFKETAPEVTLLNSRIIYTLSPTKIYRTALLKDNDIYFPEELKSAEDQLFTMKAYLNANRISVLSDKAYYYATKREGEHMSSAYVSPEDFYEVMRLIAVEILNADLEEAHKDQILAEFLNRHFSFSRTNGFSLKVKLEEQPQWINALGDFIQAVPERVDALVMSKLRPLLHYARAKDIDNYRTVEESYRQGQYYRFDIVDGKLNIQFNEGEPYFEGIDIAKPKVKMTAFKFDNHKIVTELTLNEFMIGEGHYDVRLKLHSRNKKHTMYVPLSVNANKQYRFNIMLEDIKAYLPKEKIWDVFLEVQIGTEVFEVRVGNQRNKYAYTAETSALIHLNNDFYRLTPYFTKDFNNISLYFTAITLTDSISMKLKGKNKIILTGLDRGYVFEEGMASVVLKDDMIMGMLSQTSENEVEILLSKDIKKRDFKNIVKLNTAHMTYSLK
notes: also called full-length TarS; wild-type TarS; source: E. coli Rosetta (DE3), pET41b, purified (Heparin HP, Superdex 200)
For the molecule B1, the “stoichiometry N” value in data set [2] amounted to 3.

B2: TarS_(217-573) (domain or fragment)
chain: VSPEDFYEVMRLIAVEILNADLEEAHKDQILAEFLNRHFSFSRTNGFSLKVKLEEQPQWINALGDFIQAVPERVDALVMSKLRPLLHYARAKDIDNYRTVEESYRQGQYYRFDIVDGKLNIQFNEGEPYFEGIDIAKPKVKMTAFKFDNHKIVTELTLNEFMIGEGHYDVRLKLHSRNKKHTMYVPLSVNANKQYRFNIMLEDIKAYLPKEKIWDVFLEVQIGTEVFEVRVGNQRNKYAYTAETSALIHLNNDFYRLTPYFTKDFNNISLYFTAITLTDSISMKLKGKNKIILTGLDRGYVFEEGMASVVLKDDMIMGMLSQTSENEVEILLSKDIKKRDFKNIVKLNTAHMTYSLK
notes: source: limited thermolysin proteolysis of purified full-length TarS (from E. coli Rosetta (DE3)), crystallised directly
Consider B2, for which, in the data set “crystal structure”, the binding result is given as “binds”.
